Assay: yeast display, Sf9 membrane polyspecificity reagent, FACS + sequencing; frameworks hold sequencing errors
How it was run: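 Nanobodies came from a synthetic yeast display library in Saccharomyces cerevisiae BJ5465, induced with galactose for 36–48 hours and stained for 1 hour at 4 °C with 10% biotinylated, detergent-solubilized Sf9 membrane reagent. Cells were enriched on streptavidin microbeads and then FACS-sorted, with low and high (top ~1%) gates set on anti-HA fluorescence for expression and streptavidin fluorescence for reagent binding. Each polyreactivity label reflects the gate a clone came from. Genes were amplified by colony PCR, sequenced by MiSeq 2 × 250 and filtered by CDR length.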

Sequence: QVQLVESGGGLVQAGGSLRLSCAASGSTIGSYAMGWYRQAPGKERELVAAITWNGGGTYYADSVKGRFTISRDNAKNTVYLQMNSLKPEDTAVYYCAADGWFGRVAPGSDYWGQGTQVTVSS
- polyreactivity (PSR sort gate): low polyreactivity

Sequence: QVQRVESGGGLVQAGGSLRLSCAASGRTFFGYAMGWYRQAPGKERELVAAITSGGSTNYADSVKGRFTISRDNAKNTVYLQMNSLKPEDTAVYYCAASEDGSVSYESTYPEYDYWGQGTQVTVSS
- polyreactivity (PSR sort gate): low polyreactivity

Sequence: QVQLVESGGGLVQAGGSLRLSCAASGIIFWDNAMGWYRQAPGKERELVASINYSGGSTYYADSVKGRFTISRDNAKNTVYLQMNSLKPEDTAVYYCAARTVTLDDWDYAYDYWGQGTQVTVSS
- polyreactivity (PSR sort gate): low polyreactivity

Sequence: QVQLVESGGGLVQAGGSLRLSCAASGSIYYRNGMGWYRQAPGKEREFVATITNNGGNTYYADSVKGRFTISRDNAKNTVYLQLNSLKPDDTAVYYCAAGPTWSWGYYYWGQGTQVTVSS
- polyreactivity (PSR sort gate): high polyreactivity

Sequence: QVQLVESGGGLVQAGGSLRLSCAASGSIVYVYAMGWYRQAPGKEREVVAAINTSGGSTYADSVKGRFTISRDNAKNTVYLQMNSLKPEDTAVYYCAADGYYEYTWGEYDSWGQGTQVTVSS
- polyreactivity (PSR sort gate): low polyreactivity

Sequence: QVHLVESGGGLVQAGGSLRLSCAASGSTFYTYVMGWYRQAPGKERELVAAISEDDGNTYYADSVKGRFTISRDNAKNTVYLQMNSLKPEDTAVYYCAADWEDDLAYSAYDYWGQGTQVTVSS
- polyreactivity (PSR sort gate): high polyreactivity

Sequence: QVQLVESGGGLVQAGGSLRLSCAASGFTFAPYVMGWYRQAPGKETELVAAIPTRGGSTYYADSVKGRFTISRDNAKNTVYLQMNSLKPEDTAVYYFAAQRRYDTADHGYWGQGTQVTVSS
- polyreactivity (PSR sort gate): high polyreactivity

Sequence: QVHLVESGGGLVQAGGSLRLSWAASGRNFTRYAMGWYSQAPGKERELVASIRHSGGSTYYADSVKGRFTISRDNAKKTVYLLINSLKPEDTADFYCAARGKKGTRYKYNYWGQRTQVTVSS
- polyreactivity (PSR sort gate): high polyreactivity

Sequence: QVQLVESWGGLVQAGGSLRLSCAASVSTFYNYAMGWYRQAHGKERELVAAISKSGGSTYYADSVKGRFTISRDNAKNTVYLQMNSLNPEDTAVYYCAARGVYRTRSGMGYWGQGTQVTVSS
- polyreactivity (PSR sort gate): high polyreactivity

Sequence: QVQLVESGGGLVQAGGSLRLSCAASGRTFARNAMGWYRQAPGKERELVAAITSGGSTNYADSVKGRFTISRDNAKNTVYLQMNSLIPEDTAVYYCAADGAQYYYGRYYYWGQGTQVTVSS
- polyreactivity (PSR sort gate): high polyreactivity

Sequence: QVQIVESRGGLVQAGGSLSLSCAASGRIFDYYAMGWYRQPPGKERELVAAISSSVGNTYYADSVKGRFTISRDNSKNTVYLQMNSLKPEVTAVYYCADYSYVRSSYEVEYDYWGQGTQVTVSS
- polyreactivity (PSR sort gate): low polyreactivity

Sequence: QVQLVESGGGLVQAGGSLRLSCAASGFIFFEYAMGWYRQAPGKERELVAAISWSDDTTYYADSVKGRFTISRDNAKNTVYLQMNSLKPEDTAVYYCAAEKVSGQGEMDYWGQGTQVTVSS
- polyreactivity (PSR sort gate): low polyreactivity

Sequence: QVQLVESGGGLVQAGGSLRLSCAASGSTFWYSDMGWYRQARGKDRELVAAISGSGGRTYYADSVKGRFTISRDNAKNTVYIQMNSLKPEDTAVYYCAADDYWSADFKYNYWGQGTQVTVSS
- polyreactivity (PSR sort gate): low polyreactivity

Sequence: QVQLVESGGGLVQAGGSLRLSCAASGRIFAYYVMGWYRQAPAKERELVASISSGGGTYYADSVKGRFTISRDNAKNTVYLQMNSLKPEDTAVYYCAARWLRYVYPDGHLFWYDYWGQGTQVTVSS
- polyreactivity (PSR sort gate): high polyreactivity

Sequence: QVQLVESGGGLVQAGGSLRLSCAASGFTFRYYAMGWYRQAPGKEREFVAAIRRSGANTYYADSVKGRFTISRDNAKNTVYLQMNSLKPEDTAVYYCAADKNYYPYKFDYWGQGTQVTVSS
- polyreactivity (PSR sort gate): high polyreactivity

Sequence: QVQVVESGGGLVQAGGSLRLSCAASGSTFYSNAMGWYSQAAGQERELVAAITWSDGSTYYADSVMGRFTISRDNAKHTVYVQMNSHKPEDTALYYCSATQAEVVWTPVYVEYDYWGQGTQVTVSS
- polyreactivity (PSR sort gate): high polyreactivity

Sequence: QVQLVESGGGLVQAGGSLRLSCGASGSIFYGYAMGWYRQAPGKERELVAAITLSGRRTYYADSVKGRFTISRDNAKNTVDSQMNTLKPEDTEVYYCAKHYPYPTEMNYWGQGTQVTVTS
- polyreactivity (PSR sort gate): high polyreactivity

Sequence: QVQLVESGGGLVQAGGSLRLSCAASGGILSDYAMGWYRQAPGKERELVAAITISGGRTNYADSVKGRFTFSRDNAKNTVYLQMNSLTPEDTAVYYCYKLPWEYDYWGQGTQVTVSS
- polyreactivity (PSR sort gate): low polyreactivity

Sequence: QVQLVESGGGLVQAGASLRLSCAASGRIFRYNAMGWYRQAPGKERELVAAISSGGSRNYADSVKGRFTTSRDNSKNTVYLQMNSLKPEDTAVYYCNAESVHRYPGWGYDYWGHGTQVTVSS
- polyreactivity (PSR sort gate): low polyreactivity

Sequence: QVQLVESGGRLVQAGGTLRLSCAASGRTLSNYALGWSRQAPGKERELVAAISSSGSTNYADSVKGRFTISRDNAKNTVYLQMNSLKPEDSAVYYCAAESWFLRWYRYDYWGQGTQVTVSS
- polyreactivity (PSR sort gate): low polyreactivity

Sequence: QVQLVESGGGLVQAGGSLRLSCAASGRTFTDNAMGWYRQAPGKERELVAAISRRGGSTYYADSVKGRFTISRDNAKNTVYLQMNSLKPEVTAVYYCNTDEIAGGFPYRYYLYYGYDYWGQGTQVTVSS
- polyreactivity (PSR sort gate): low polyreactivity

Sequence: QVQLVESGGGLVQAGGSLRLSCDASGSIFYFNAMGWYRQAPGKERELVASITSGGSTNYADSVKGRFTISRDNAKNTVYLQMNSLKPEDTAVYYCNARKVTYPLYQDEMEYWGQGTQVTVSS
- polyreactivity (PSR sort gate): low polyreactivity

Sequence: QVQLVESGGGLVQAGGSLRLSCAASGFTFLSNAMGWYRQAPGKERELVATINSGGSTNYADSVKGRFTISRDNAKNTVYLQMNSLKPEDTAVYYCAAKLWRYYHYDYWGQGTQVTVSS
- polyreactivity (PSR sort gate): low polyreactivity

Sequence: QVQLVESGGGLVQAGGSLRLSCAASGRTFRENAMGWYRQAPGKERELVAAIRRSGGRTYYADSVKGRFTISRDNAKNTVYLQMNSLKPEDTAVYYCNAVADGYAFRRPYVTYYYWGQGTQVTVSS
- polyreactivity (PSR sort gate): low polyreactivity

Sequence: QVQLVESGGGIVQAGGSLRLSCAASGGTFQRNAMGWYIQAPGKEREFVATITRGGGSTYYADSVKGRFTISRDNAKNTVYFQMNSLKPEDSAVYYCNANTSYYQRYNYWGQGTQVTVSS
- polyreactivity (PSR sort gate): high polyreactivity

Sequence: QVQLVESGGGLVQAGGSLRLSCAASGRIFRWYPMGWYRQAPGKESELDATISSTGGSTYYADSVKGRFTISRDNAKNTVYIQMNSLKPEVTAVYYCNAVVYGIFLYAWYDYWGQGTQVTVSS
- polyreactivity (PSR sort gate): low polyreactivity

Sequence: QVQLLESGVGLVQEGGSLRLSCPASGRIFGSKAMGWYRQAPGKERELVAAITRGGSTNYADSVEGRFTISRDNAKNTVYLQMNSLKPEYTAVYYCAVRWYRKYNYWGQGTLVTVSS
- polyreactivity (PSR sort gate): high polyreactivity

Sequence: QVQLEESRGCLVQAGGSLRLSCAASGSIFYVYAMGWYRQAPGKERELVAAINTSGGSTYADSVMGRFTISRDNAKNTVYLQMNILIPEDNAFYYCAADGYYEYTWGEYDSWGQGTQVTVSS
- polyreactivity (PSR sort gate): low polyreactivity

Sequence: QGQLEESGGGLVQAGGSLRLTCAASGRNLRTYAMGWYRQATGKERELVAAISRGGSTNYADSVKGRFTISRDNAKNTVYLQMHSLKPEDTAVYYCAAGYVRYYSDYVSYVYWGQGTQVTVSS
- polyreactivity (PSR sort gate): low polyreactivity

Sequence: QVQLVESGGGLVQAGGSLRLSCAASGSIFGTYAMGWYRPAPGNERELVAAITWRDDGNTYYADSVQGRFTISRDNAKNTVYLQMNSLQPEDTAVYYGAASRAYGKDAYRGYSYRYDYWGQGTQGTVSS
- polyreactivity (PSR sort gate): high polyreactivity

Sequence: QVQLVESGGGLVQAGGILSLSCAASGNIFAYNAMGWYRQAPGKERELVAAITDSGGNTFYADSVKGRFTISRDNAKNTVYLQMISVKPEDTAVYYCAADPDGWGFVYPRYVSWGQGTQVTVSS
- polyreactivity (PSR sort gate): low polyreactivity

Sequence: QVQLVESGGGLVQAGGSLRLSCADSGFTFRTYAMGWYRQAPGKEREFVAAITTYGGSTYYADSVKGRFTISRDNAKYTVYLQMNTLKPEDTAVYYCATRGRLRNYDYWGQGTQVTVSS
- polyreactivity (PSR sort gate): high polyreactivity

Sequence: QVQLVESCGGLVQAGCSLRLSCAASGRTFAYNAMGWYRQAPGKERELVADITSGGSTYYADSVKGRFTISRDNAKNTVYLQMNSLKPEDTAVYYCAAYPQFWYWDYNYWGQGTQVTVSS
- polyreactivity (PSR sort gate): high polyreactivity

Sequence: QVQLVESGGGLVQAGGSLRLSCAASGGTFAGYAMGWYRLAPGKERELVAAISWSSGRTYYADSVKGRFTISRDNAKNTVYLQMNSLKPEDTAVYYCNVLRYRGYDYWGQGTQVTVSS
- polyreactivity (PSR sort gate): high polyreactivity

Sequence: QVQLVASGGGLVQAGGSLRLSSAASGFTFYGYAMGWYSQARGKERELVATIRRSTGSTYYADSVKGRFTISRDNAKNTVYLQINSLIPEDTAVYYCATRVWFPITSYDYWGQGTQVTVSS
- polyreactivity (PSR sort gate): low polyreactivity

Sequence: QVQLVESGGGLVQAGGSLRLSCAASGRILGKNALGWYRQAPGKEREWVADISGRGDRTHYADSVKGRFTISRDNAKNTVYLQMNSLNAEYTAVYYCAKYHHPPGKGQSVSLGYDFWGQGTQVTVSS
- polyreactivity (PSR sort gate): low polyreactivity

Sequence: QVQLVESGGGLVQAGGSLRLSCAASGFIFYYYAMGWYRPAPGKERELVAAISVRGGRTYYADSVKGRFTISRDNAKNTVYLQMNSLKPEDTAVYYCAADLYNRGRGSSQSYRTGYDYWGQGTQVTVSS
- polyreactivity (PSR sort gate): high polyreactivity

Sequence: QVQLVESGGGLVQAGGSLRLSCAASGYTFYDNAMGWYRQAPGKEREFVASITWSGGSTYYADSVKGRVTISRDNAKNTVYLQMNSLKPEDTAVYYCAAESWFKYDYWGQGTQVTVSS
- polyreactivity (PSR sort gate): low polyreactivity

Sequence: QVQLVESGGGLVQAGGSLRLSCAASGLTFHRYAMGWYRQAPGKERELVADISSGDSTNYADSVKGRFTISRDNAKNTVYLQMNSLKPEDTAVYYCNTDGYIYRYRFDYWGQGTQVTVSS
- polyreactivity (PSR sort gate): low polyreactivity

Sequence: QVQLVESGGGLVQAGGSLRLSCAASGRISGSYVMGWYRQAPGKESELVAGISGRGGSTYYADSVKGRFTISRDNAKNTVYLQMYSLKPEDTAVYYCAVVDRTSKGNSYYWGQGTQVTVSS
- polyreactivity (PSR sort gate): high polyreactivity

Sequence: QVQLVESGGGLVQAGGSLRLSCAASGFIVRNYAMGWYSQAPGKERELVASISRGTSTNYADSVKGRFTISRDNAKNTVYLQMNSLKPEDTAVYYCNKRFYYHPFDYWGQGTQVTVSS
- polyreactivity (PSR sort gate): high polyreactivity

Sequence: QVQLVESGGGLVQAGGSLRLSCAASGFIFSPYAMGGYRHEPGKEREFVAAITSRVGSTYYADSVKGRFTISRDNAKNTVYLQMNSLKPEDTAVYYCAATTDGLVGRPRYDYWGQGTQVTVSS
- polyreactivity (PSR sort gate): low polyreactivity

Sequence: QVQLVETGGGLVQAGGSLRLSCAASGFTFYYYAMGWYRQAPGKERELVAAINRSGGSTYYADSLKGRFTISRDNAKNTVYLQMNSLKPEDTAVYYCAAPYVGGSSHGYWGQGTQVTVSS
- polyreactivity (PSR sort gate): high polyreactivity

Reference: the nanobody polyreactivity screen of Harvey et al. (2022)
